Source: publication doi:10.1101/2025.11.21.689414 (bioRxiv, 2025)
Values belong to the binder of their own block, whether it stands above or below them.

What was measured:
[1] = target: alpha hemoglobin stabilizing protein (AHSP) (Homo sapiens (species ; …, UniProt Q9NZD4); experiment: ELISA
[2] = target: Frizzled class receptor 7 (Fzd7), His-tagged (UniProt O75084); experiment: BLI
parvin alpha (PARVA) = parvin alpha (PARVA) (Homo sapiens (species ; …, UniProt Q9NVD7); experiment: ELISA
Sequence of parvin alpha (PARVA) (Homo sapiens (Q9NVD7 whole entry): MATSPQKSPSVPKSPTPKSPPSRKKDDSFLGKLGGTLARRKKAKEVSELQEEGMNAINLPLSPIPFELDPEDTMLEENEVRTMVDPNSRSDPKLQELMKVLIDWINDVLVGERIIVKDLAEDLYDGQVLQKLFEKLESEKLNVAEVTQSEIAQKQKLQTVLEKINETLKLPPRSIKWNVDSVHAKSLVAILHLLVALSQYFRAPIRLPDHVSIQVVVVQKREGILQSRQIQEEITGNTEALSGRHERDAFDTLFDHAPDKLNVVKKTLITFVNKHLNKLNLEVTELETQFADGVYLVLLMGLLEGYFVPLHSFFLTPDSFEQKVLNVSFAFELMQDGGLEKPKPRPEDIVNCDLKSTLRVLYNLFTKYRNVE

Sequence of alpha hemoglobin stabilizing protein (AHSP) (Homo sapiens (Q9NZD4 whole entry): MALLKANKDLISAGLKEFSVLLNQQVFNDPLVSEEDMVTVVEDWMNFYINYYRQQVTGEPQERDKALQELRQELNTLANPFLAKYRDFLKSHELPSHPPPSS

binding result [1]: binds
B1: representative AHSP binder (GaluxDesign de novo designed full-length IgG, cross-platform benchmark) (antibody, V domains shown)
VH: VQLVESGGGLVQPGGSLRLSCAASGFNIKSFWIHWVRQAPGKGLEWVAWIFALTGNTYYADSVKGRFTISADTSKNTAYLQMNSLRAEDTAVYYCAKASGVSIPLWFDVWGQGTLVTVSS
VL: DIQMTQSPSSLSASVGDKVTITCKASQDISNYLAWYQQKPGKAPKLLIYAASNRKYGVPSRFSGSGSGTDFTLTISSLQPEDFATYYCQQYYSTPLTFGQGTKVEIK

binding result [2]: binds
B2: F7.B (reference anti-Fzd7 antibody, PDB entry 6O3A) (antibody, V domains shown)
VH: EVQLVESGGGLVQPGGSLRLSCAASGFNFSSSSIHWVRQAPGKGLEWVAYIYPSYDYTYYADSVKGRFTISADTSKNTAYLQMNSLRAEDTAVYYCARGYFYTWGGMDYWGQGTLVTVSS
VL: DIQMTQSPSSLSASVGDRVTITCRASQSVSSAVAWYQQKPGKAPKLLIYSASSLYSGVPSRFSGSRSGTDFTLTISSLQPEDFATYYCQQYYSLFTFGQGTKVEIK

binding result (parvin alpha (PARVA)): binds
B3: representative PARVA binder (GaluxDesign de novo designed full-length IgG, cross-platform benchmark) (antibody, V domains shown)
VH: EEQLVESGGGLVQPGGSLRLSCAASGFNIKDYWIHWVRQAPGKGLEWVAWINPQSGWTNYADSVKGRFTISADTSKNTAYLQMNSLRAEDTATYYCAKIGDWGGKGYALDVWGQGTLVTVSS
VL: DIVMTQSPSSLSASVGDRVTITCRASQDISTALAWYQQKPGQAPKLLIYKASSLASGVPSRFSGSGSGTDFTLTISSLQPEDFATYYCQQFRDLSTLTFGQGTKVEIK
